{"source": "paper doi:10.1101/466904", "about": "(bioRxiv, 2018)", "key": {"Pjd, Axe2 homologue [1]": {"molecular_target": "Pjd, Axe2 homologue", "assay": "dynamic light scattering"}, "Pjd, Axe2 homologue [2]": {"molecular_target": "Pjd, Axe2 homologue", "assay": "SEC"}, "Cph, Axe2 homologue [3]": {"molecular_target": "Cph, Axe2 homologue", "assay": "dynamic light scattering"}, "Cph, Axe2 homologue [4]": {"molecular_target": "Cph, Axe2 homologue", "assay": "SEC"}, "Sku, Axe2 homologue [5]": {"molecular_target": "Sku, Axe2 homologue", "assay": "dynamic light scattering"}, "Sku, Axe2 homologue [6]": {"molecular_target": "Sku, Axe2 homologue", "assay": "SEC"}, "Pal, Axe2 homologue [7]": {"molecular_target": "Pal, Axe2 homologue", "assay": "dynamic light scattering"}, "Pal, Axe2 homologue [8]": {"molecular_target": "Pal, Axe2 homologue", "assay": "SEC"}, "Pda, Axe2 homologue [9]": {"molecular_target": "Pda, Axe2 homologue", "assay": "dynamic light scattering"}, "Pda, Axe2 homologue [10]": {"molecular_target": "Pda, Axe2 homologue", "assay": "SEC"}, "[11]": {"molecular_target": "3RJT protein Asn183Ala mutant (Alicyclobacillus acidocaldarius subsp. Acidocaldarius DSM446)", "assay": "SEC"}, "SEC [12]": {"molecular_target": "the molecule itself", "assay": "SEC"}, "SEC [13]": {"molecular_target": "the molecule itself", "assay": "SEC", "remark": "listed apart in the source"}, "SEC [14]": {"molecular_target": "the molecule itself", "assay": "SEC", "remark": "listed apart in the source"}}, "note": "Read-outs that look alike come from different tables or passages of the source."}
{"molecule": "Pjd, Axe2 homologue (enzyme)", "values": [{"measurement": "stoichiometry N", "setting": "Pjd, Axe2 homologue [1]", "result": 8}, {"measurement": "stoichiometry N", "setting": "Pjd, Axe2 homologue [2]", "result": 8}]}
{"molecule": "Cph, Axe2 homologue (enzyme)", "values": [{"measurement": "stoichiometry N", "setting": "Cph, Axe2 homologue [3]", "result": 8}, {"measurement": "stoichiometry N", "setting": "Cph, Axe2 homologue [4]", "result": 8}]}
{"molecule": "Sku, Axe2 homologue (enzyme)", "values": [{"measurement": "stoichiometry N", "setting": "Sku, Axe2 homologue [5]", "result": 8}, {"measurement": "stoichiometry N", "setting": "Sku, Axe2 homologue [6]", "result": 8}]}
{"molecule": "Pal, Axe2 homologue (enzyme)", "values": [{"measurement": "stoichiometry N", "setting": "Pal, Axe2 homologue [7]", "result": 8}, {"measurement": "stoichiometry N", "setting": "Pal, Axe2 homologue [8]", "result": 8}]}
{"molecule": "Pda, Axe2 homologue (enzyme)", "values": [{"measurement": "stoichiometry N", "setting": "Pda, Axe2 homologue [9]", "result": 8}, {"measurement": "stoichiometry N", "setting": "Pda, Axe2 homologue [10]", "result": 8}]}
{"molecule": "3RJT protein Asn183Ala mutant (enzyme)", "values": [{"measurement": "stoichiometry N", "setting": "[11]", "result": 2}]}
{"molecule": "Axe2 acetyl-xylo-oligosaccharide esterase from Geobacillus stearothermophilus, wild type (enzyme) MKIGSGEKLLFIGDSITDCGRARPEGEGSFGALGTGYVAYVVGLLQAVYPELGIRVVNKGISGNTVRDLKARWEEDVIAQKPDWVSIMIGINDVWRQYDLPFMKEKHVYLDEYEATLRSLVLETKPLVKGIILMTPFYIEGNEQDPMRRTMDQYGRVVKQIAEETNSLFVDTQAAFNEVLKTLYPAALAWDRVHPSVAGHMILARAFLREIGFEWVRSR", "values": [{"measurement": "stoichiometry N", "setting": "SEC [12]", "result": 8}]}
{"molecule": "Axe2 Arg55Ala mutant (enzyme) MKIGSGEKLLFIGDSITDCGRARPEGEGSFGALGTGYVAYVVGLLQAVYPELGIAVVNKGISGNTVRDLKARWEEDVIAQKPDWVSIMIGINDVWRQYDLPFMKEKHVYLDEYEATLRSLVLETKPLVKGIILMTPFYIEGNEQDPMRRTMDQYGRVVKQIAEETNSLFVDTQAAFNEVLKTLYPAALAWDRVHPSVAGHMILARAFLREIGFEWVRSR", "values": [{"measurement": "stoichiometry N", "setting": "SEC [13]", "result": 8}]}
{"molecule": "Axe2 triple mutant Tyr184Phe-Arg205Ala-Trp215Ala (enzyme) MKIGSGEKLLFIGDSITDCGRARPEGEGSFGALGTGYVAYVVGLLQAVYPELGIRVVNKGISGNTVRDLKARWEEDVIAQKPDWVSIMIGINDVWRQYDLPFMKEKHVYLDEYEATLRSLVLETKPLVKGIILMTPFYIEGNEQDPMRRTMDQYGRVVKQIAEETNSLFVDTQAAFNEVLKTLFPAALAWDRVHPSVAGHMILAAAFLREIGFEAVRSR", "values": [{"measurement": "stoichiometry N", "setting": "SEC [12]", "result": 2}]}
{"molecule": "Axe2 Arg192Lys mutant (enzyme) MKIGSGEKLLFIGDSITDCGRARPEGEGSFGALGTGYVAYVVGLLQAVYPELGIRVVNKGISGNTVRDLKARWEEDVIAQKPDWVSIMIGINDVWRQYDLPFMKEKHVYLDEYEATLRSLVLETKPLVKGIILMTPFYIEGNEQDPMRRTMDQYGRVVKQIAEETNSLFVDTQAAFNEVLKTLYPAALAWDKVHPSVAGHMILARAFLREIGFEWVRSR", "values": [{"measurement": "stoichiometry N", "setting": "SEC [12]", "result": 2}]}
{"molecule": "Axe2 Arg55Glu mutant (enzyme) MKIGSGEKLLFIGDSITDCGRARPEGEGSFGALGTGYVAYVVGLLQAVYPELGIEVVNKGISGNTVRDLKARWEEDVIAQKPDWVSIMIGINDVWRQYDLPFMKEKHVYLDEYEATLRSLVLETKPLVKGIILMTPFYIEGNEQDPMRRTMDQYGRVVKQIAEETNSLFVDTQAAFNEVLKTLYPAALAWDRVHPSVAGHMILARAFLREIGFEWVRSR", "values": [{"measurement": "stoichiometry N", "setting": "SEC [14]", "result": 2}, {"measurement": "stoichiometry N", "setting": "SEC [13]", "result": 8}]}
{"molecule": "Axe2 Trp190Ile mutant (enzyme) MKIGSGEKLLFIGDSITDCGRARPEGEGSFGALGTGYVAYVVGLLQAVYPELGIRVVNKGISGNTVRDLKARWEEDVIAQKPDWVSIMIGINDVWRQYDLPFMKEKHVYLDEYEATLRSLVLETKPLVKGIILMTPFYIEGNEQDPMRRTMDQYGRVVKQIAEETNSLFVDTQAAFNEVLKTLYPAALAIDRVHPSVAGHMILARAFLREIGFEWVRSR", "values": [{"measurement": "stoichiometry N", "setting": "SEC [12]", "result": 8}]}
{"molecule": "Axe2 Tyr184Phe mutant (enzyme) MKIGSGEKLLFIGDSITDCGRARPEGEGSFGALGTGYVAYVVGLLQAVYPELGIRVVNKGISGNTVRDLKARWEEDVIAQKPDWVSIMIGINDVWRQYDLPFMKEKHVYLDEYEATLRSLVLETKPLVKGIILMTPFYIEGNEQDPMRRTMDQYGRVVKQIAEETNSLFVDTQAAFNEVLKTLFPAALAWDRVHPSVAGHMILARAFLREIGFEWVRSR", "values": [{"measurement": "stoichiometry N", "setting": "SEC [12]", "result": 2}]}
